The text below walks through data of the supplement of paper PMC7877785.

A short description of this data set: self-splicing fitness, log relative to wild type (ln ratio); higher = more splicing; Tetrahymena group I intron in knt gene, E. coli kanamycin selection, DiMSum; sequences stand for … in CUCUCU…GGAGGGAAAAGUUAUCAGGCAUGCACCUGGUAGCUAGUCUUUAAACCAAUAGAUUGCAUCGGUUUAAAAGGCAAGACCGUCAAAUUGCGGGAAAGGGGUCAACAGCCGUUCAGUACCAAGUCUCAGGGGAAACUUUGAGAUGGCCUUGCAAAGGGUAUGGUAAUAAGCUGACGGACAUGGUCCUAACCACGCAGCCAAGUCCUAAGUCAACAGAUCUUCUGUUGAUAUGGAUGCAGUUCACAGACUAAAUGUCGGUCGGGGAAGAUGUAUUCUUCUCAUAAGAUAUAGUCGGACCUCUCCUUAAUGGGAGCUAGCGGAUGAAGUGAUGCAACACUGGAGCCGCUGGGAACUAAUUUGUAUGCGAAAGUAUAUUGAUUAGUUUUGGAGUACUCGUGGUCG
The gist of the method: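 DiMSum derived fitness as the error-weighted combination of fold changes across replicates, kanamycin versus no kanamycin, normalised to wild type. E. coli BL21(DE3) held the library, which randomised all eight P1ex-region intron nucleotides within the knt kanamycin-resistance gene on pET-22b(+). Six replicate transformations grew overnight at 37°C or 30°C on LB agar with or without 25 μg/mL kanamycin, also containing 100 μg/mL carbenicillin, 50 μM IPTG and 0.2% rhamnose, and pooled colonies were amplicon-sequenced on an Illumina HiSeq 2500.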

± gives the uncertainty stated by the source.

As for UGCUAGCAAUAUUACGAUCG, the “self-splicing fitness (ln)” value reads like this: (30 °C) 0.18 ± 0.12; (37 °C) 0.439 ± 0.23. For AAAGAGCAAUAUUACGAAGG, the “self-splicing fitness (ln)” value was -3.52 ± 0.33 (30 °C) and -2.64 ± 0.41 (37 °C). For GGUUAGCAAUAUUACGCUAU, the “self-splicing fitness (ln)” value (30 °C) was -4.15 ± 0.46 and the “self-splicing fitness (ln)” value (37 °C) is -2.72 ± 0.34. For GAGCAGCAAUAUUACGUCGC, in that order: -2.31 ± 0.14 and -1.47 ± 0.15. As to CUACAGCAAUAUUACGCCUG, the “self-splicing fitness (ln)” value runs as follows: (30 °C) -1.43 ± 0.1; (37 °C) -0.209 ± 0.097. For GAGAAGCAAUAUUACGCAUU, the “self-splicing fitness (ln)” value was -2.53 ± 0.12 (30 °C) and -2.08 ± 0.17 (37 °C). For CCGCAGCAAUAUUACGGCCA, the “self-splicing fitness (ln)” value is, setting by setting: (30 °C) -4.11 ± 0.31; (37 °C) -2.51 ± 0.26.

CUGAAGCAAUAUUACGAUUA: the “self-splicing fitness (ln)” value is, setting by setting: (30 °C) -2.6 ± 0.2; (37 °C) -2.84 ± 0.29. Consider GCAGAGCAAUAUUACGACGU, for which the “self-splicing fitness (ln)” value reads like this: (30 °C) -0.995 ± 0.14; (37 °C) -1.5 ± 0.18.

Take CCCAAGCAAUAUUACGUUGU: the “self-splicing fitness (ln)” value is, setting by setting: (30 °C) -3.3 ± 0.095; (37 °C) -2.43 ± 0.11. Take GUGGAGCAAUAUUACGGCCU: the “self-splicing fitness (ln)” value by setting is: (30 °C) -1.74 ± 0.19; (37 °C) -0.55 ± 0.3. As for UCCCAGCAAUAUUACGUUCC, the “self-splicing fitness (ln)” value is, setting by setting: (30 °C) -2.26 ± 0.21; (37 °C) -2.44 ± 0.27. For UUCAAGCAAUAUUACGACUU, the “self-splicing fitness (ln)” value reads like this: (30 °C) -3.86 ± 0.15; (37 °C) -2.65 ± 0.18.

For UACGAGCAAUAUUACGACAC, the “self-splicing fitness (ln)” value (30 °C) is -3.07 ± 0.19 and the “self-splicing fitness (ln)” value (37 °C) is -3.28 ± 0.25. As to AACGAGCAAUAUUACGGGGA, the “self-splicing fitness (ln)” value was -2.72 ± 0.21 (30 °C) and -3.6 ± 0.34 (37 °C).

Regarding CGCUAGCAAUAUUACGGACU, the “self-splicing fitness (ln)” value was -0.928 ± 0.09 (30 °C) and -1.08 ± 0.12 (37 °C). For GAACAGCAAUAUUACGGUGC, in that order: -1.38 ± 0.074 and -1.22 ± 0.086. Take GAAAAGCAAUAUUACGCACG: the “self-splicing fitness (ln)” value runs as follows: (30 °C) -0.543 ± 0.09; (37 °C) -0.904 ± 0.12.

As for UGAUAGCAAUAUUACGAGGU, the “self-splicing fitness (ln)” value (30 °C) was -3.79 ± 0.24 and the “self-splicing fitness (ln)” value (37 °C) is -3.13 ± 0.25. In the case of CGAGAGCAAUAUUACGAAGG, the “self-splicing fitness (ln)” value by setting is: (30 °C) -3.4 ± 0.22; (37 °C) -2.69 ± 0.32. Take CAAUAGCAAUAUUACGUUCU: the “self-splicing fitness (ln)” value (30 °C) was -4.4 ± 0.43. Take UACGAGCAAUAUUACGUGAU: the “self-splicing fitness (ln)” value (30 °C) is -4.17 ± 0.21 and the “self-splicing fitness (ln)” value (37 °C) is -2.45 ± 0.2. For AUAAAGCAAUAUUACGCUGG, the “self-splicing fitness (ln)” value is -1.43 ± 0.088 (30 °C) and -0.293 ± 0.13 (37 °C).

For the sequence AUUCAGCAAUAUUACGUCCC, the “self-splicing fitness (ln)” value is -1.53 ± 0.13 (30 °C) and -1.3 ± 0.14 (37 °C). Taken in the same sequence, the figures for GAUCAGCAAUAUUACGCCAU were -3.36 ± 0.3 and -1.33 ± 0.19.

As to UCUUAGCAAUAUUACGUGGG, the “self-splicing fitness (ln)” value by setting is: (30 °C) -3.96 ± 0.23; (37 °C) -2.21 ± 0.18.

Take UUGUAGCAAUAUUACGGUUU: the “self-splicing fitness (ln)” value (30 °C) is -3.53 ± 0.24 and the “self-splicing fitness (ln)” value (37 °C) was -1.79 ± 0.17.

As for GUUGAGCAAUAUUACGGCGG, the “self-splicing fitness (ln)” value (37 °C) was -2.66 ± 0.36. GAGCAGCAAUAUUACGUAGC: the “self-splicing fitness (ln)” value reads like this: (30 °C) -0.99 ± 0.11; (37 °C) -1.65 ± 0.13. For UGAUAGCAAUAUUACGUUUU, in that order: -3.75 ± 0.16 and -1.85 ± 0.14.

Turning to AGUCAGCAAUAUUACGAGAG, the “self-splicing fitness (ln)” value by setting is: (30 °C) -2.88 ± 0.2; (37 °C) -1.67 ± 0.18.

Regarding UCGAAGCAAUAUUACGAGUU, the “self-splicing fitness (ln)” value was -3.31 ± 0.15 (30 °C) and -2.04 ± 0.21 (37 °C). As to CUUCAGCAAUAUUACGGGGU, the “self-splicing fitness (ln)” value is -3.95 ± 0.2 (30 °C) and -2.45 ± 0.25 (37 °C). Regarding GUGGAGCAAUAUUACGGUUG, under “30 °C”, the “self-splicing fitness (ln)” value is -3.04 ± 0.15. With UUAUAGCAAUAUUACGAAGA, the “self-splicing fitness (ln)” value (37 °C) was -1.99 ± 0.32. Take GACGAGCAAUAUUACGGCUA: the “self-splicing fitness (ln)” value (30 °C) is -0.73 ± 0.11 and the “self-splicing fitness (ln)” value (37 °C) is -0.653 ± 0.11.

For the sequence GCAAAGCAAUAUUACGCAGG, the “self-splicing fitness (ln)” value is -2.33 ± 0.13 (30 °C) and -2.02 ± 0.19 (37 °C). Take ACAGAGCAAUAUUACGUUUG: the “self-splicing fitness (ln)” value was -3.85 ± 0.25 (30 °C) and -3.07 ± 0.24 (37 °C). Regarding AUCUAGCAAUAUUACGAUUU, the “self-splicing fitness (ln)” value was -0.629 ± 0.084 (30 °C) and 0.317 ± 0.11 (37 °C).
